What follows are sequences tested on K4 kissing-loop RNA reporter (assay: apparent KD of K4 kissing-loop reporter; higher = weaker reporter binding). Conditions: Eterna round: R107; input ligand: arginine 13.2 mM.
Procedure: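 RNA-MaP round R107: designed RNA switches with theophylline, tryptophan, arginine or FMN aptamers are transcribed on-chip within common flanks. They are titrated with a labelled K4 kissing-loop RNA reporter in RNA-MaP buffer (100 mM Tris pH 7.5, 80 mM KCl, 4 mM MgCl2), without ligand or with the indicated ligand. Median apparent KD per design.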
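Further: bound reporter read as fluorescence of individual clusters on recovered sequencing chips by microscopy, with normalized cluster intensities fitted with a binding model.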

| Sequence | apparent KD of K4 kissing-loop reporter [nM] |
| --- | --- |
| UGAUACCAGACGGCCGCCACUCCCGUAAGUCAAAGACUUACGAAGAGAGUCGUCCAGUGAUGUUGGAGGACCGGGUCUGGUAUCU [FiskerMod 12 - Jieux - Exclusion - Tryptophan B] | 143 |
| GAAUUGACGAGUGAUGUUCGUCCACAAUACCGAGGACCGGUACGGCCGCCACUCGAGCAAUGUGAAUAGGGUCGCGUUUUGCAGU | 266 |
| ACUAUGGAGUGAUGUUCCCGCGUCAUUGAUACCAGAAUGUAUACCUUCCCUUGGCAGCAAUUCAUCGCACGUAUACUUAUACAAG [theeternabot_sameState_KL_Theo_A_31] | 541 |
| UACAGGGCGAGUGAUGUUUGCUCAUGUGAUACCAGUGCCAUCCAACACCCUUGGCAGCAUGCGGGCAGUGAUGUUGUCCUUGGUU [Exclusion Theophylline A GF11] | 223 |
| AGGCACGAGCAAGGAUAUCGAGUAGAGUGAUGUUCUGCCUGGGUUGGCUCGUAAGGGCCUUCCCAGCGAGAAGGUGCUCGUGCCU [#2 Same State - FMN A Attempt #15 (HarryS)] | 632 |
| AGAGUCAGACAAAAGUCUGGCUCAGCCGAAGGAGCGUCCGUAAGGACAGGUAGGUCGCGGCUAUUUGAGUGAUGUUUGGGUUCCU [KL-SSArg-A20] | 144 |

Same assay, conditions: Eterna round: R107; input ligand: none

| Sequence | apparent KD of K4 kissing-loop reporter [nM] |
| --- | --- |
| AAUAAGCAUGGAAGGAGCGUAGUCCAGUGAUGUUGGAGUUAAAUACCAGUGAUGUUGGUUAUACAGGUAGGUCGCCAUAAAGCUU [Exclusion Arginine B Gf 6] | 89.3 |
| GAUGGUCGAGAAGGAUAUGUGACUACCAGAAGGAAAUUCAGUGAUGUUGAUUGUCGCGAGCAGGAGACAGAAGGUCUCAGACAUA [theeternabot_exclusion_KL_FMN_B_5] | 330 |
| AGUAGUUGGGCGGCCGCCACUGGAACAGCUUUGCCAAAGGCAGAGCACUAGAGUGAUGUUCUAGCUAGGACCGGGUCCAACUACA [whbob_SS_Tryp_B_t17] | 444 |
| CGCGCGGGUUUGAGAGGGUUCGCGCGAAGUGAGGAUAUUUAGGGAGAAAGAAGGCACUAUAAAAUAUAGUGAUGUUAUAUAAGGG [SSFMNA.H] | 1110 |
| GGAUUCGGCGCGGCCGCCACUUCCGGUGGCUGGUGUCAUGGUGCGCGUGAGUGAUGUUUAUGUGGGAGGACCGGGCGUUGAGUCC [whbob_Ex_Tryp_B_w45] | 767 |
| GGUAGCAUGGCGGCCGCCACUUUUUUAGAUACCUACACAGAAAGCAGUGAUGUUGCUUGGUGGUAAAGGACCGGGCCAUGCUACC | 136 |
| AGAAUAAUAAAUUUGGAGUGAUGUUCCGGACGAGGACCGGUACGGCCGCCACUCGAAAGCAGUCUGCGAAAGCAGACUGCAAGGA [Tesla SS Tryp A 1] | 580 |
| GGAUAGGACGGAGGAUAUGGUAGUGAUGUUACCAAACUGGUUAAACAUGUCAGAAAACUGGCAUGACCAGAAGGUUGUCCUAUCG [FmnBX 27 G10+U75] | 94.5 |
| UAUAUAUGAUGUGAUACCAGUGAAAAGCCAGUGAUGUUGGUAGAACUGGUAUAUAAAUAACACCCUUGGCAGCACAAUCACGUAU [whbob_Ex_Theo_B_sa96] | 147 |
| CUGUACAUCUCGGCCGCCACUGACAUGAGUGAUGUUCAUGUACAUGAGUGAUGUUCAUGUUCGGCCAGGACCGGGAGGUGUGCAG [KL-SSTryp-B2 #analogue #double KL] | 274 |
| UAAUUUAUGUCUUUAAUUUUAUAAUCAGAUACCAGUGAUUUAUGACACCCUUGGCAGCUGUAUUGAGUGAUGUUCUUAUACUUAA [JR_Nu_ExcTheophyA_Sub022] | 175 |
| UUCUCUCAGGCACGCGAGUGAUGUUCGCGGCGAGGACCGGUACGGCCGCCACUCGCGCCUGAGAGAGGUUAUCAAAGAUAGCCUU [whbob_SS_tryp_A] | 94.7 |
| GGUGGCUUACAAAGCUCAGUGAUGUUGAGCCGAGGACCGGUACGGCCGCCACUCGUUUGCCAUUCACUACAGUUACAAGCACUAG [theeternabot_exclusion_KL_Trp_A_2] | 279 |
| UUUUAUUAAUUCUUCUAGUGAUGUUAGAUACGAGGACCGGUACGGCCGCCACUCGCUUAUUGGUUUAUAAAUUUUAUAUUAUUUA [JR_SSTryptoA_Sub016] | 286 |
| CCCUCACGAGUGAUGUUCGUAGGGUACAGUCAGGAUAUCAUGCGGUUGAGAAGGGACAGGAAGGGCGGCGGCGGGUUGCUCACCG [Atera] | 192 |
| CGGUACGUCGCAGGAUAUGGAUUCUGGAGUGAUGUUUCAGAGGCAUGCGGAAAACGCAUGCCGACUCCAGAAGGGCGACGUACCG | 276 |
| GGAUAGGAUAGAGGAUAUGGAAAACACAGAAAUGACUUGUUGUGUUUAUCCAUAGGGAGUGAUGUUCCAGAAGGCUGUCCUAUCG [MatMod 21 - Jieux - Exclusion - FMN B] | 194 |
| GUCAUGCGUUCAGGAUAUGGACCAAUUUAUAUUGCUUAUGCUGUGCCCUGUAUGGCAGUGAUGUUGCCAGAAGGGAGGGCAUGCA [Erbionvean] | 96.6 |
| AGGAUCACGUCAGUGAUGUUGACAAGAGAUACCAGAGACGAAAGUCUCCCUUGGCAGCUCAUUGUGAUCCGUGACAAAGGUCACA [Omei KL hio A SS C v2] | 413 |
| GCGCGGGUCAGUGAUGUUGACCCUCGGAGACGAGGACCGGUACGGCCGCCACUCGUCCGCGCAGCUGAGGCAAAAGCCUCGGCAA [Omei KL Tryp A SS B v5] | 140 |
| AUUAAUAACUGAGGAUAUCGUUUUACUGUAGUGAUGUUACAGAAAAUGCACAUUAUAAUUUCUAUUCGAGAAGGCAGAAUAAUUA [JR_ExcFMNB_Sub013] | 74.5 |
